The target in assay [1] is His-tagged recombinant full-length HB3VAR06 (FV6) (P. falciparum HB3). Description: SEC; Superdex 200 10/30 HR, 50 mM Tris-HCl, 150 mM NaCl, pH 7.4; α2M (150 μg) alone and with molar ratios of FV6, incubated on ice 15 min; 0.5 mL/min, A280. For orientation: SEC sorts molecules by how far they enter the pores of the column.
Assay [2] shares this target. Description: ELISA; MaxiSorp plates coated with recombinant PfEMP1 constructs (18 nM, overnight, 4°C); blocked in TSM buffer with 1% Ig-free BSA; α2M or α2M-MA (10 nM; titrated in Fig 2A); detected with anti-α2M antibodies. In general terms: An ELISA detects its analyte on a solid surface through an enzyme-linked reagent.

This note sets out measurements from paper PMC4489720.

A value given as a limit tells only on which side of the number the result lay.

B1: α2-macroglobulin (α2M), native (natural protein)
chain: SVSGKPQYMVLVPSLLHTETTEKGCVLLSYLNETVTVSASLESVRGNRSLFTDLEAENDVLHCVAFAVPKSSSNEEVMFLTVQVKGPTQEFKKRTTVMVKNEDSLVFVQTDKSIYKPGQTVKFRVVSMDENFHPLNELIPLVYIQDPKGNRIAQWQSFQLEGGLKQFSFPLSSEPFQGSYKVVVQKKSGGRTEHPFTVEEFVLPKFEVQVTVPKIITILEEEMNVSVCGLYTYGKPVPGHVTVSICRKYSDASDCHGEDSQAFCEKFSGQLNSHGCFYQQVKTKVFQLKRKEYEMKLHTEAQIQEEGTVVELTGRQSSEITRTITKLSFVKVDSHFRQGIPFFGQVRLVDGKGVPIPNKVIFIRGNEANYYSNATTDEHGLVQFSINTTNVMGTSLTVRVNYKDRSPCYGYQWVSEEHEEAHHTAYLVFSPSKSFVHLEPMSHELPCGHTQTVQAHYILNGGTLLGLKKLSFYYLIMAKGGIVRTGTHGLLVKQEDMKGHFSISIPVKSDIAPVARLLIYAVLPTGDVIGDSAKYDVENCLANKVDLSFSPSQSLPASHAHLRVTAAPQSVCALRAVDQSVLLMKPDAELSASSVYNLLPEKDLTGFPGPLNDQDNEDCINRHNVYINGITYTPVSSTNEKDMYSFLEDMGLKAFTNSKIRKPKMCPQLQQYEMHGPEGLRVGFYESDVMGRGHARLVHVEEPHTETVRKYFPETWIWDLVVVNSAGVAEVGVTVPDTITEWKAGAFCLSEDAGLGISSTASLRAFQPFFVELTMPYSVIRGEAFTLKATVLNYLPKCIRVSVQLEASPAFLAVPVEKEQAPHCICANGRQTVSWAVTPKSLGNVNFTVSAEALESQELCGTEVPSVPEHGRKDTVIKPLLVEPEGLEKETTFNSLLCPSGGEVSEELSLKLPPNVVEESARASVSVLGDILGSAMQNTQNLLQMPYGCGEQNMVLFAPNIYVLDYLNETQQLTPEIKSKAIGYLNTGYQRQLNYKHYDGSYSTFGERYGRNQGNTWLTAFVLKTFAQARAYIFIDEAHITQALIWLSQRQKDNGCFRSSGSLLNNAIKGGVEDEVTLSAYITIALLEIPLTVTHPVVRNALFCLESAWKTAQEGDHGSHVYTKALLAYAFALAGNQDKRKEVLKSLNEEAVKKDNSVHWERPQKPKAPVGHFYEPQAPSAEVEMTSYVLLAYLTAQPAPTSEDLTSATNIVKWITKQQNAQGGFSSTQDTVVALHALSKYGAATFTRTGKAAQVTIQSSGTFSSKFQVDNNNRLLLQQVSLPELPGEYSMKVTGEGCVYLQTSLKYNILPEKEEFPFALGVQTLPQTCDEPKAHTSFQISLSVSYTGSRSASNMAIVDVKMVSGFIPLKPTVKMLERSNHVSRTEVSSNHVLIYLDKVSNQTLSLFFTVLQDVPVRDLKPAIVKVYDYYETDEFAIAEYNAPCSKDLGNA
Broadly, the stoichiometry N is the number of molecules, sites or subunits per partner or assembly. On to B1, for which, in assay [1], the stoichiometry N is greater than 4 FV6 per α2M. Further, the amount bound relative to α2M-MA (fold) in assay [2] stood at 4 fold.

B2: methylamine-activated α2-macroglobulin (α2M-MA) (natural protein)
chain: B1 chain
modifications: internal thioester cleaved by methylamine (MA-activated)
With B2, the stoichiometry N (FV6 per α2M-MA) in assay [1] came out at 1.
